Test results reported in US20230140293A1.

Experiments:
Test in all cases: cell-based or functional assay
[1] = biological target: CH0505TF.G458Y Env, Env-pseudotyped virus produced in 293S GnTI- cells (Man5-enriched) (HIV-1)
[2] = biological target: HIV-1 Env 426c.DM (N460D.N463D), Env-pseudotyped virus produced in 293T cells (HIV-1 clade C strain 426c)
[3] = biological target: HIV-1 Env 426c.TM (N276D.N460D.N463D), Env-pseudotyped virus produced in 293T cells (HIV-1 clade C strain 426c)
[4] = biological target: CH0505TF.gly3.276 Env, Env-pseudotyped virus produced in 293S GnTI- cells (Man5-enriched) (HIV-1)
[5] = biological target: CH0505TF Env, Env-pseudotyped virus produced in 293S GnTI- cells (Man5-enriched) (HIV-1)
[6] = biological target: HIV-1 426c.DM (N460D/N463D) Env on Env-pseudotyped virus produced in 293s/GnTI-/- cells (Man5-enrichment) (HIV-1)
[7] = biological target: HIV-1 clade C strain 426c Env on Env-pseudotyped virus produced in 293s/GnTI-/- cells (Man5-enrichment) (HIV-1)
[8] = biological target: CH0505TF Env, Env-pseudotyped virus produced in 293T cells (HIV-1)
[9] = biological target: CH0505TF.gly3.461 Env, Env-pseudotyped virus produced in 293S GnTI- cells (Man5-enriched) (HIV-1)
[10] = biological target: HIV-1 Env 426c.TM (N276D.N460D.N463D), Env-pseudotyped virus produced in 293S GnTI- cells (Man5-enriched) (HIV-1 clade C strain 426c)
[11] = biological target: CH0505.w4.3 Env, Env-pseudotyped virus produced in 293T cells (HIV-1)
[12] = biological target: CH0505TF.G458Y Env, Env-pseudotyped virus produced in 293T cells (HIV-1)
[13] = biological target: HIV-1 426c.TM (N276D/N460D/N463D) Env on Env-pseudotyped virus produced in 293s/GnTI-/- cells (Man5-enrichment) (HIV-1)
[14] = biological target: HIV-1 Env 426c.SM (N276D), Env-pseudotyped virus produced in 293S GnTI- cells (Man5-enriched) (HIV-1 clade C strain 426c)
[15] = biological target: HIV-1 426c.SM (N276D) Env on Env-pseudotyped virus produced in 293s/GnTI-/- cells (Man5-enrichment) (HIV-1)
[16] = biological target: HIV-1 Env 426c.DM (N460D.N463D), Env-pseudotyped virus produced in 293S GnTI- cells (Man5-enriched) (HIV-1 clade C strain 426c)
[17] = biological target: CH0505TF.gly4 Env, Env-pseudotyped virus produced in 293T cells (HIV-1)
[18] = biological target: CH0505TF.gly3.197 Env, Env-pseudotyped virus produced in 293T cells (HIV-1)
[19] = biological target: HIV-1 Env 426c.TM4 (S278R.G471S.N460D.N463D), Env-pseudotyped virus produced in 293S GnTI- cells (Man5-enriched) (HIV-1 clade C strain 426c)
[20] = biological target: HIV-1 426c.DM (N460D/N463D) Env on Env-pseudotyped virus produced in 293T cells (HIV-1)
[21] = biological target: CH0505TF.gly3.461 Env, Env-pseudotyped virus produced in 293T cells (HIV-1)
[22] = biological target: HIV-1 clade C strain 426c Env on Env-pseudotyped virus produced in 293T cells (HIV-1)
[23] = biological target: HIV-1 Env 426c.TM4 (S278R.G471S.N460D.N463D), Env-pseudotyped virus produced in 293T cells (HIV-1 clade C strain 426c)
[24] = biological target: CH0505TF.gly4 Env, Env-pseudotyped virus produced in 293S GnTI- cells (Man5-enriched) (HIV-1)
[25] = biological target: CH0505TF.gly3.276 Env, Env-pseudotyped virus produced in 293T cells (HIV-1)
[26] = biological target: HIV-1 Env 426c, Env-pseudotyped virus produced in 293S GnTI- cells (Man5-enriched) (HIV-1 clade C strain 426c)
[27] = biological target: HIV-1 426c.SM (N276D) Env on Env-pseudotyped virus produced in 293T cells (HIV-1)
[28] = biological target: HIV-1 426c.TM (N276D/N460D/N463D) Env on Env-pseudotyped virus produced in 293T cells (HIV-1)
[29] = biological target: HIV-1 Env 426c.SM (N276D), Env-pseudotyped virus produced in 293T cells (HIV-1 clade C strain 426c)
[30] = biological target: HIV-1 Env 426c, Env-pseudotyped virus produced in 293T cells (HIV-1 clade C strain 426c)
[31] = biological target: CH0505TF.gly3.197 Env, Env-pseudotyped virus produced in 293S GnTI- cells (Man5-enriched) (HIV-1)

Substance	IC50 (µg/ml) in TZM-bl [1] [µg/mL]	IC50 (µg/ml) in TZM-bl [2] [µg/mL]	IC50 (µg/ml) in TZM-bl [3] [µg/mL]	IC50 (µg/ml) in TZM-bl [4] [µg/mL]	IC50 (µg/ml) in TZM-bl [5] [µg/mL]	IC50 (µg/ml) in TZM-bl [8] [µg/mL]	IC50 (µg/ml) in TZM-bl [9] [µg/mL]	IC50 (µg/ml) in TZM-bl [10] [µg/mL]	IC50 (µg/ml) in TZM-bl [12] [µg/mL]	IC50 (µg/ml) in TZM-bl [14] [µg/mL]	IC50 (µg/ml) in TZM-bl [16] [µg/mL]	IC50 (µg/ml) in TZM-bl [17] [µg/mL]	IC50 (µg/ml) in TZM-bl [18] [µg/mL]	IC50 (µg/ml) in TZM-bl [19] [µg/mL]	IC50 (µg/ml) in TZM-bl [21] [µg/mL]	IC50 (µg/ml) in TZM-bl [23] [µg/mL]	IC50 (µg/ml) in TZM-bl [24] [µg/mL]	IC50 (µg/ml) in TZM-bl [25] [µg/mL]	IC50 (µg/ml) in TZM-bl [26] [µg/mL]	IC50 (µg/ml) in TZM-bl [29] [µg/mL]	also measured
PGT128 (antibody)	> 5	> 5	> 5	> 5	> 5	> 5	> 5	> 5	> 5	> 5	> 5	> 5	> 5	> 5	> 5	> 5	> 5	> 5	4.3	> 5	ID50/IC50 in TZM-bl [6]: > 5 µg/mL; ID50/IC50 in TZM-bl [7]: 4.3 µg/mL; IC50 (µg/ml) in TZM-bl [11]: > 10 µg/mL; ID50/IC50 in TZM-bl [13]: > 5 µg/mL; ID50/IC50 in TZM-bl [15]: > 5 µg/mL; ID50/IC50 in TZM-bl [20]: > 5 µg/mL; ID50/IC50 in TZM-bl [22]: > 5 µg/mL; ID50/IC50 in TZM-bl [27]: > 5 µg/mL; ID50/IC50 in TZM-bl [28]: > 5 µg/mL; IC50 (µg/ml) in TZM-bl [30]: > 5 µg/mL; IC50 (µg/ml) in TZM-bl [31]: > 5 µg/mL
10E8 (antibody)	2.1	1.11	1.52	2.3	2.2	4.4	2.5	0.51	1.1	0.28	0.45	2.7	3.4	0.19	3.3	0.53	2.2	3.3	0.35	1.26	IC50 (µg/ml) in TZM-bl [11]: 1.1 µg/mL; IC50 (µg/ml) in TZM-bl [30]: 0.8 µg/mL; IC50 (µg/ml) in TZM-bl [31]: 4 µg/mL
VRC34.01 (antibody)	0.03	0.09	0.08	0.14	0.1	0.55	0.17	0.07	0.21	0.07	0.04	0.94	2.1	0.07	0.84	0.13	0.14	0.62	0.05	0.06	IC50 (µg/ml) in TZM-bl [11]: > 25 µg/mL; IC50 (µg/ml) in TZM-bl [30]: 0.08 µg/mL; IC50 (µg/ml) in TZM-bl [31]: 0.17 µg/mL
PGDM1400 (antibody)	0.002	> 25	> 25	0.004	0.007	0.006	0.008	> 5	0.006	> 5	> 5	0.016	0.01	> 5	0.04	> 5	0.007	0.02	> 5	> 25	ID50/IC50 in TZM-bl [6]: > 5 µg/mL; ID50/IC50 in TZM-bl [7]: > 5 µg/mL; ID50/IC50 in TZM-bl [13]: > 5 µg/mL; ID50/IC50 in TZM-bl [15]: > 5 µg/mL; ID50/IC50 in TZM-bl [20]: > 25 µg/mL; ID50/IC50 in TZM-bl [22]: > 25 µg/mL; ID50/IC50 in TZM-bl [27]: > 25 µg/mL; ID50/IC50 in TZM-bl [28]: > 25 µg/mL; IC50 (µg/ml) in TZM-bl [30]: > 25 µg/mL; IC50 (µg/ml) in TZM-bl [31]: 0.003 µg/mL
